Laboratory results as given in the supplement of paper PMC12042874.
± gives the uncertainty stated by the source.

Assay: amyloid nucleation score (Sup35N fusion, yeast selection) (log enrichment); library NNK3; higher = more nucleation; inactive = no reads after selection
Procedure, shortened: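 Psi-negative yeast expressed Sup35N fused to peptides of 20 random codons. They were induced 24 hours with 100 μM copper sulfate, grown 7 days at 30°C without adenine and uracil, and their plasmid inserts from input and output were Illumina-sequenced. The nucleation score is the DiMSum log enrichment of output over input reads, centred on the mode score of non-aggregating sequences. Sequences with under 100 input reads were excluded.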
In the case of SRGCRTTYRQEWECIQCLKW, the amyloid nucleation score is reported as “inactive”.
For SRIFSGISPDVTDPS, the amyloid nucleation score was “inactive”.
For SRILRLRVSSSHVERYFKLF, the amyloid nucleation score was “inactive”.
Substance SRKALVYGSVKRLSIMSAWV has an amyloid nucleation score of -0.626 ± 0.96.
In the case of SRMPCRFM, the amyloid nucleation score is reported as “inactive”.
With SRMSGLWD the amyloid nucleation score was “inactive”.
For SRNMLH, the amyloid nucleation score was “inactive”.
With SRNVLYLVIKIYFEDFNPLS the amyloid nucleation score was “inactive”.
With SRPILLLSFCFRCAIC the amyloid nucleation score was “inactive”.
With SRRFYLYYFCWYSVVMFIHG the amyloid nucleation score was “inactive”.
In the case of SRRNTFAVGNFNSVLLN, the amyloid nucleation score is reported as “inactive”.
In the case of SRRSCYVIAYELV, the amyloid nucleation score is reported as “inactive”.
With SRRVRAYIRVFGLCKGFAEC the amyloid nucleation score was “inactive”.
With SRSAY the amyloid nucleation score was “inactive”.
With SRVSPMFKIRIWNWIPAWAT the amyloid nucleation score was “inactive”.
For SRVWTISWLNDGVGGRTQAE, the amyloid nucleation score was “inactive”.
With SRVYAKGRKNTSQFCSGGYS the amyloid nucleation score was “inactive”.
In the case of SRWPGHNYISQYGGYLLIFY, the amyloid nucleation score is reported as 2.02 ± 0.071.
In the case of SRYLLADSFFRASAVWDVSE, the amyloid nucleation score is reported as “inactive”.
SSACISCYVSMLWYDVLFKV showed an amyloid nucleation score of 0.345 ± 0.23.
With SSAIYVMRLPQCMAECSRPR the amyloid nucleation score was “inactive”.
With SSCKDPRRKE the amyloid nucleation score was “inactive”.
In the case of SSCPYIFYQLST, the amyloid nucleation score is reported as “inactive”.
With SSDDFSWTIRMRRSEFTSHG the amyloid nucleation score was “inactive”.
For SSDQRASPGWGFLFHKCAQV, the amyloid nucleation score was “inactive”.
With SSEPMHLEASIPVFAKE the amyloid nucleation score was “inactive”.
SSERGMLVDNVLSHSWMFCI showed an amyloid nucleation score of 1.35 ± 0.13.
For SSEVYQALPPMS, the amyloid nucleation score was “inactive”.
SSFEFVE showed an amyloid nucleation score of 0.698 ± 0.22.
For SSFPYFTTYVHHVG, the amyloid nucleation score was “inactive”.
With SSKFRRLLGVIMMADLMQVY the amyloid nucleation score was “inactive”.
In the case of SSLETLSSLFLIRLMELVSR, the amyloid nucleation score is reported as “inactive”.
For SSLLSEWNGGKSYNSVVDEV, the amyloid nucleation score was “inactive”.
In the case of SSMGVVSVRAN, the amyloid nucleation score is reported as “inactive”.
With SSMSSTSALLYMHDNFWCAI the amyloid nucleation score was “inactive”.
For SSNDVVTSYRILCKVSTKAT, the amyloid nucleation score was -0.622 ± 0.66.
Work on SSNESGLSFGSEFHMLGWHG yielded an amyloid nucleation score of 0.075 ± 0.35.
For SSNLFVHHTSFTWASSTPHR, the amyloid nucleation score was “inactive”.
For SSNLNRFSITVFVVERHHQF, the amyloid nucleation score was “inactive”.
In the case of SSNYNLKTLNSISRFFDLES, the amyloid nucleation score is reported as “inactive”.
With SSSCVSSGCDVWA the amyloid nucleation score was “inactive”.
For SSSDCGNMNTTPRWAGGIGA, the amyloid nucleation score was “inactive”.
Work on SSSGY yielded an amyloid nucleation score of -0.007 ± 1.
For SSSPVMYCMFLRSRSGRDYK, the amyloid nucleation score was “inactive”.
In the case of SSSTKGFVNVDKSLASW, the amyloid nucleation score is reported as “inactive”.
In the case of SSTGSLIPQPAFSYFCTATP, the amyloid nucleation score is reported as “inactive”.
In the case of SSTYSGCWLVLSIKRFVLIE, the amyloid nucleation score is reported as “inactive”.
With SSVDSSFANCCVISKRNHML the amyloid nucleation score was “inactive”.
SSVGMARAYL showed an amyloid nucleation score of -1.17 ± 1.9.
In the case of SSVKRYLAVRWCSESMHTRW, the amyloid nucleation score is reported as “inactive”.
SSYGSPIIVLNTHSTVGIRI gave an amyloid nucleation score of 1.59 ± 0.11.
With SSYLDTNWRMP the amyloid nucleation score was “inactive”.
For SSYLPHHISSQRLSSQEPAD, the amyloid nucleation score was “inactive”.
In the case of STCRWLFNNA, the amyloid nucleation score is reported as 0.257 ± 0.16.
For STGWSMLVFRTRCYLFSFSG, the amyloid nucleation score was “inactive”.
For STGYYVMDVYLTVAYYVDSN, the amyloid nucleation score was “inactive”.
In the case of STITYHLDIEVRKCWVFYMY, the amyloid nucleation score is reported as “inactive”.
STLILNRLYCFNLISLASLS showed an amyloid nucleation score of 0.56 ± 0.2.
In the case of STLVFPLKFFELCSKD, the amyloid nucleation score is reported as “inactive”.
With STMDSIYQFL the amyloid nucleation score was “inactive”.
Substance STQGCLCRYPG has an amyloid nucleation score of -0.333 ± 0.88.
With STQNGYRQNEFSRSRMMAPD the amyloid nucleation score was “inactive”.
For STRRILCIP, the amyloid nucleation score was -0.381 ± 0.8.
Work on STSRGNRFACPCFDYCWFRE yielded an amyloid nucleation score of -0.598 ± 1.1.
With STVSYGVGHQNM the amyloid nucleation score was “inactive”.
For STWGEFVH, the amyloid nucleation score was “inactive”.
In the case of STWTG, the amyloid nucleation score is reported as “inactive”.
For STYRHLDRSL, the amyloid nucleation score was “inactive”.
For STYVCDGIDG, the amyloid nucleation score was “inactive”.
In the case of SVDDSFLYLYRYKGFCPNF, the amyloid nucleation score is reported as “inactive”.
Substance SVDVMTGLPTWSYLCDDETR has an amyloid nucleation score of 2.2 ± 0.06.
With SVDWYNFECSIASPF the amyloid nucleation score was “inactive”.
For SVEMIPDSGLSVRMGFEGLV, the amyloid nucleation score was “inactive”.
For SVGHSFERKWSGCHWEISNL, the amyloid nucleation score was “inactive”.
For SVGRYA, the amyloid nucleation score was -0.306 ± 0.41.
With SVGVFVYLKLINLIVLGGRG the amyloid nucleation score was “inactive”.
For SVHWEVRFYMDRYVLAYAVT, the amyloid nucleation score was “inactive”.
Work on SVIILYRCSFRGWRSHASGN yielded an amyloid nucleation score of 1.05 ± 0.1.
For SVILCFSV, the amyloid nucleation score was “inactive”.
With SVKNWPNVN the amyloid nucleation score was “inactive”.
In the case of SVKVPWWDCINVRAHMWRMV, the amyloid nucleation score is reported as “inactive”.
SVLICINCNVEHV gave an amyloid nucleation score of 2.44 ± 0.083.
In the case of SVLRYYSNESRLTVHLSVCI, the amyloid nucleation score is reported as “inactive”.
In the case of SVLYRWGYRTGWEL, the amyloid nucleation score is reported as 0.128 ± 0.52.
SVNVHCIREPWVADWTCCRL showed an amyloid nucleation score of 1.18 ± 0.16.
For SVRYVETYSHRTNTVDAAFV, the amyloid nucleation score was “inactive”.
For SVSARSRRLWGSMRIAVTVF, the amyloid nucleation score was “inactive”.
In the case of SVSGRPGEMFSRYYWIYGMY, the amyloid nucleation score is reported as “inactive”.
With SVSLAHFGSRKLVFSG the amyloid nucleation score was “inactive”.
With SVSLLLRFVILLCTFVQYGW the amyloid nucleation score was “inactive”.
In the case of SVSNPRNRT, the amyloid nucleation score is reported as “inactive”.
In the case of SVYGACSRFPTNVVYNRSEY, the amyloid nucleation score is reported as “inactive”.
For SVYPVFPTLFNSSYFSGTFG, the amyloid nucleation score was “inactive”.
With SWASQWLFTPLSTVRSYIIL the amyloid nucleation score was “inactive”.
In the case of SWFGGRDYYKMHIVSG, the amyloid nucleation score is reported as “inactive”.
In the case of SWFSVLLGLRTSRVIANSTY, the amyloid nucleation score is reported as “inactive”.
For SWMDRILVRYWVVLDNRNFV, the amyloid nucleation score was “inactive”.
With SWNTL the amyloid nucleation score was “inactive”.
With SWSRYYCLYCG the amyloid nucleation score was 2.97 ± 0.068.
SWVGTG showed an amyloid nucleation score of -0.331 ± 0.84.
In the case of SWVRMYIGEFLVSRCQMWST, the amyloid nucleation score is reported as “inactive”.
For SWVRTGFL, the amyloid nucleation score was “inactive”.
With SYCATCHIPRENMSLQCVME the amyloid nucleation score was 1.3 ± 0.1.
In the case of SYDFIMVLPHEDRIDIVQQF, the amyloid nucleation score is reported as “inactive”.
For SYFDIFGTTDQVSVKSRMCT, the amyloid nucleation score was “inactive”.
For SYFFVIQGQLGCITGVDFIW, the amyloid nucleation score was “inactive”.
With SYGLFR the amyloid nucleation score was “inactive”.
In the case of SYGTSGCRRLVLWTYDSKFI, the amyloid nucleation score is reported as “inactive”.
With SYISNP the amyloid nucleation score was “inactive”.
For SYLCVATWSCPHYVGFSQHI, the amyloid nucleation score was “inactive”.
With SYMGHV the amyloid nucleation score was 0.506 ± 0.43.
For SYNYRGADRWLT, the amyloid nucleation score was “inactive”.
With SYRAARNFHMFLLYWHGTRW the amyloid nucleation score was “inactive”.
For SYRCMSESRFYYFLSCHARR, the amyloid nucleation score was “inactive”.
For SYRPMHTDGLSLYSRQNLSY, the amyloid nucleation score was “inactive”.
With SYSFEYNHSDKFVSLYYMDI the amyloid nucleation score was “inactive”.
In the case of SYSHYFILHHLRDSELSHCS, the amyloid nucleation score is reported as “inactive”.
With SYSIWSLLEIDF the amyloid nucleation score was “inactive”.
With SYSSMCLPKNTKAHASWC the amyloid nucleation score was “inactive”.
With SYVDLYVGWLNSWMYVMRSA the amyloid nucleation score was “inactive”.
With TACMRNVRTNIGKHTSQYLH the amyloid nucleation score was “inactive”.
With TADIESMIMFNGRVPGHLSV the amyloid nucleation score was “inactive”.
For TAESKRH, the amyloid nucleation score was “inactive”.
In the case of TAKPYRDDNNGYSAYIHPCS, the amyloid nucleation score is reported as “inactive”.
For TAMYVMSFCW, the amyloid nucleation score was “inactive”.
In the case of TAQFDNSCSGLQHVVVNK, the amyloid nucleation score is reported as “inactive”.
For TASTQSPYHFYCRV, the amyloid nucleation score was “inactive”.
In the case of TCAIPHLKCSFLLYFGQYGC, the amyloid nucleation score is reported as “inactive”.
With TCFLVFTCVVGV the amyloid nucleation score was “inactive”.
In the case of TCHLPAQSLLFIRCSTKAGV, the amyloid nucleation score is reported as “inactive”.
Work on TCKCGSALK yielded an amyloid nucleation score of 0.384 ± 0.21.
In the case of TCLWARSPVLEDFEYGLHGS, the amyloid nucleation score is reported as “inactive”.
TCMYNMVVGSLVGRWNC gave an amyloid nucleation score of 1.4 ± 0.13.
With TCRITP the amyloid nucleation score was “inactive”.
With TCSDDCFLMKWYEDIRSVVT the amyloid nucleation score was “inactive”.
With TCSRLVDQFNTFGTVY the amyloid nucleation score was “inactive”.
For TCTEGMGCPMSKAARVLLTR, the amyloid nucleation score was “inactive”.
In the case of TCVWRHAWQSGAHRVVRLAW, the amyloid nucleation score is reported as “inactive”.
In the case of TCYSIERFACY, the amyloid nucleation score is reported as “inactive”.
For TDCFGLMSSALP, the amyloid nucleation score was “inactive”.
For TDELYWLKDFLYGFYNMKSP, the amyloid nucleation score was “inactive”.
In the case of TDFFG, the amyloid nucleation score is reported as “inactive”.
Substance TDFPYK has an amyloid nucleation score of -0.12 ± 0.53.
For TDRFNAFSWAVASGFVDFDG, the amyloid nucleation score was “inactive”.
In the case of TDSPLRLKRDYSPNSFCRSG, the amyloid nucleation score is reported as 0.005 ± 1.1.
With TDTRNINV the amyloid nucleation score was “inactive”.
In the case of TDTTSIMNWEDRPISSLKVD, the amyloid nucleation score is reported as “inactive”.
For TELFALGYRSFCARTCATHD, the amyloid nucleation score was “inactive”.
In the case of TEPIWWEFGCKYHGYISARS, the amyloid nucleation score is reported as “inactive”.
In the case of TESCVDSMVAFHNLPYLFRL, the amyloid nucleation score is reported as “inactive”.
In the case of TESPNYLYRI, the amyloid nucleation score is reported as “inactive”.
For TFALFLGWIMPTSGGDTGYY, the amyloid nucleation score was 0.037 ± 0.39.
In the case of TFFSYSRTALGATYYSLIIC, the amyloid nucleation score is reported as “inactive”.
TFGAVTCMSRCVKSSYNLKW gave an amyloid nucleation score of 1.35 ± 0.088.
With TFIFDFAAFMNMVNGFSVLG the amyloid nucleation score was 2.23 ± 0.088.
For TFIFVLVSC, the amyloid nucleation score was “inactive”.
For TFLALHNNQQLV, the amyloid nucleation score was “inactive”.
For TFLYFNVLRIHFVASS, the amyloid nucleation score was “inactive”.
Substance TFNRWCLVFLLMHNVLVCEW has an amyloid nucleation score of 0.185 ± 0.33.
In the case of TFRYCTVLMFAVSFWQFHRC, the amyloid nucleation score is reported as “inactive”.
